In one data set the target is T1, SRp40 (UniProt O35326).
T1 sequence: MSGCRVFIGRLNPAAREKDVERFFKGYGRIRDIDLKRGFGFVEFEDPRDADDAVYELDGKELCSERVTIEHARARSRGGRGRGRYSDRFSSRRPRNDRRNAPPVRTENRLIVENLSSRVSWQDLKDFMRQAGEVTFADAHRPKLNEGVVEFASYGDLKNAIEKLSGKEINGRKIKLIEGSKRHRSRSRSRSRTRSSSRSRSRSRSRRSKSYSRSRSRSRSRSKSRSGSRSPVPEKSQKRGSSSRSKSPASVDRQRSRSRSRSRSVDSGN

The target in the next data set is T2, SRp20 (UniProt P84104).
T2 sequence: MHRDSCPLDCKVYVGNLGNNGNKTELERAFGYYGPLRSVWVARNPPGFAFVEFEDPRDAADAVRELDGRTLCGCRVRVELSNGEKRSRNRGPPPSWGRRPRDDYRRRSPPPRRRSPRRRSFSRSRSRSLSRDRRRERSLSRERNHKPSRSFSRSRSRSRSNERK

For another data set, the target named is SRp30a (UniProt Q6PDM2).
The next data set has as its target SRp30b (UniProt Q62093).
The target of a further data set is T3, SRp55 (UniProt Q3TWW8).
T3 sequence: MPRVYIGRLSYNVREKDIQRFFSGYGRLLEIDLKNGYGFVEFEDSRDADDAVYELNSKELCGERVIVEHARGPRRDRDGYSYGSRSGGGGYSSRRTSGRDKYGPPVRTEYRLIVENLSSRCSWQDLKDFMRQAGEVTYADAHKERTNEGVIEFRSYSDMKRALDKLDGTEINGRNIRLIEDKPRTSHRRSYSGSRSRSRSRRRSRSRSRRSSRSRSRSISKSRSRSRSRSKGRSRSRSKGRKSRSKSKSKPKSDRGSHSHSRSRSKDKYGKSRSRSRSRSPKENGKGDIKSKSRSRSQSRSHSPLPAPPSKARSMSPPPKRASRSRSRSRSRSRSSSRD

Sequence of SRp30a (Q6PDM2 2-248): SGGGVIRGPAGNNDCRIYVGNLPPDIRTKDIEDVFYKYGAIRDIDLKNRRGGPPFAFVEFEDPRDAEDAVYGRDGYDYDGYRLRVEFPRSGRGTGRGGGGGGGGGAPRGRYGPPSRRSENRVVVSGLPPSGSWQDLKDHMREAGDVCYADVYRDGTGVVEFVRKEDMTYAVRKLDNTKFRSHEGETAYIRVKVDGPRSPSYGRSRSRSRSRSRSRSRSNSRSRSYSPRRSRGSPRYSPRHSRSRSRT
Sequence of SRp30b (Q62093 2-221): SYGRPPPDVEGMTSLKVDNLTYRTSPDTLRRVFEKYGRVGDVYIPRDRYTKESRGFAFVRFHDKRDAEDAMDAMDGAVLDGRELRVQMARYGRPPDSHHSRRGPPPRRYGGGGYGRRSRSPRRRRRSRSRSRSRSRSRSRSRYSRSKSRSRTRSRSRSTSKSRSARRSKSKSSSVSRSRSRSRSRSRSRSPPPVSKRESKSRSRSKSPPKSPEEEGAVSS

As for GST-mCLK4 fusion protein, the “phosphorylation of SR proteins, in vitro kinase assay with gamma-32P-ATP” value (“phosphorylation of SR proteins” for short) is “All mCLK kinases were able to phosphorylate SRp2O, SRp3Oa and to a lesser extent SRp4O and SRp55” in the data set with SRp40; “All mCLK kinases were able to phosphorylate SRp2O, SRp3Oa and to a lesser extent SRp4O and SRp55” with SRp20; “All mCLK kinases were able to phosphorylate SRp2O, SRp3Oa and to a lesser extent SRp4O and SRp55” with SRp30a; “mCLK1 and mCLK4 phosphorylated SRp3Oa (upper band) more strongly than SRp3Ob” in the data set with SRp30b; “All mCLK kinases were able to phosphorylate SRp2O, SRp3Oa and to a lesser extent SRp4O and SRp55” with SRp55.

With GST-mCLK2 fusion protein, the “phosphorylation of SR proteins” value was “All mCLK kinases were able to phosphorylate SRp2O, SRp3Oa and to a lesser extent SRp4O and SRp55” with SRp40; “All mCLK kinases were able to phosphorylate SRp2O, SRp3Oa and to a lesser extent SRp4O and SRp55” with SRp20; “All mCLK kinases were able to phosphorylate SRp2O, SRp3Oa and to a lesser extent SRp4O and SRp55” in the data set with SRp30a; “mCLK2 and mCLK3 phosphorylated both with almost equal efficiency” with SRp30b; “All mCLK kinases were able to phosphorylate SRp2O, SRp3Oa and to a lesser extent SRp4O and SRp55” with SRp55.

Turning to GST-mCLK3 fusion protein, the “phosphorylation of SR proteins” value is “All mCLK kinases were able to phosphorylate SRp2O, SRp3Oa and to a lesser extent SRp4O and SRp55” with SRp40; “All mCLK kinases were able to phosphorylate SRp2O, SRp3Oa and to a lesser extent SRp4O and SRp55” in the data set with SRp20; “All mCLK kinases were able to phosphorylate SRp2O, SRp3Oa and to a lesser extent SRp4O and SRp55” in the data set with SRp30a; “mCLK2 and mCLK3 phosphorylated both with almost equal efficiency” with SRp30b; “All mCLK kinases were able to phosphorylate SRp2O, SRp3Oa and to a lesser extent SRp4O and SRp55” in the data set with SRp55.

The record behind these values is patent publication US7074589.
